± gives the standard deviation of the averaged measurements.
Test system: Saccharomyces cerevisiae
Test: protein stability index of tFT-peptide fusion (C-terminal peptide) (PSI (0-1 scale)); higher = more stable (slower turnover)
Conditions: genetic background: wild type; temperature: 30 C
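Further: PSI is a weighted mean of sequencing reads over stability bins, variants kept only with over 10 reads, mCherry proximal and sfGFP distal, peptide attached via GGGS linker.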

Sequence | protein stability index
PPPVLSPRFPVL | 0.731 ± 0.14
KKERTGTKKKKK | 0.698 ± 0.048
CSLRSSGLGFKQ | 0.62 ± 0.072
PPSNSFHSSIPY | 0.678 ± 0.02
SLAPPVILPSHP | 0.659 ± 0.041
LFPIYFVCNYSA | 0.508 ± 0.0075
SFIFTLRRSRPR | 0.667 ± 0.012
ARWQALTHLIVL | 0.6151 ± 0.0051
GRSGWFGSEGVR | 0.803 ± 0.12
LFRRPSVVFLFV | 0.496 ± 0.062
KNKQSKNKSKRK | 0.712 ± 0.038
VTFFAFPLFFGF | 0.602 ± 0.041
VSTPSPPSDSTP | 0.685 ± 0.051
PPLSGNLPCFRF | 0.713 ± 0.03
GRKSSITLLHTL | 0.58 ± 0.043
GSWIKFVCRRAG | 0.731 ± 0.0095
AFASVLPSSLSS | 0.641 ± 0.085
EWCGSLVVWTGG | 0.668 ± 0.018
PRPNGLSTDDLE | 0.729 ± 0.056
VWRGCRVGGQGM | 0.687 ± 0.042
CTISHSGHSGST | 0.706 ± 0.058
LHGASLCVPPSP | 0.5205 ± 0.0013
ICPWLLPPSCRS | 0.738 ± 0.015
PPLGPRARPPPR | 0.734 ± 0.024
ACLGVSTPSLGI | 0.672 ± 0.027
ASSPSPPTPPPP | 0.647 ± 0.056

Sequence | protein stability index
GSAACPVRGRFF | 0.639 ± 0.095
LPVPLFPLFLTS | 0.573 ± 0.011
PRLPRRTTTIHG | 0.71 ± 0.035
GAPTYTGEPRTP | 0.742 ± 0.032
LSTPPDLNPLIF | 0.654 ± 0.034
SPTSPAPPPNAS | 0.67 ± 0.0092
LTNISKIKILRY | 0.653 ± 0.032
PPPPPPLSVPPL | 0.695 ± 0.077
GGETGGRWHKKQ | 0.672 ± 0.069
NQCRSQVRQNGY | 0.762 ± 0.15
RPSPPLLLPPAP | 0.71822 ± 0.00068
LPVVGLVPPARS | 0.5103 ± 0.003
PGPSPSPPLPRF | 0.748 ± 0.014
LGARGAGAPAPG | 0.7286 ± 0.0037
STRERPDRHAVS | 0.676 ± 0.016
VPFDFFVYFFEF | 0.5861 ± 0.0018
ASSTSSPPPLPP | 0.666 ± 0.032
GTRAGGRSKRER | 0.735 ± 0.11
GGMWGVGRGSVG | 0.657 ± 0.068
SLSIAPAPLDFP | 0.655 ± 0.084
HSPPPPPALLPL | 0.66 ± 0.028
PTRERPSDQPYP | 0.701 ± 0.04
GVVWMSCGGGGG | 0.7684 ± 0.0017
DCSCIYGHRVVV | 0.6466 ± 0.0038
SRHVAGVGGGEV | 0.652 ± 0.019
KKKKEKKYKERY | 0.721 ± 0.13

Sequence | protein stability index
PSSTSPQPRLCF | 0.686 ± 0.027
CGRCVRGGRPWG | 0.577 ± 0.012
DDGRVSLGEQSG | 0.673 ± 0.036
CIVSARCWRSPY | 0.609 ± 0.0072
PPPAPQTATPHR | 0.714 ± 0.022
PPPALPPPPFPP | 0.591 ± 0.011
PASLSPAVPESS | 0.719 ± 0.044
VSGVVHRVVVSR | 0.7 ± 0.043
PAAPPLGFTRTD | 0.7 ± 0.0095
WITAYFPLHSSE | 0.714 ± 0.036
VFPPTPPTVPRG | 0.727 ± 0.0077
IGARESGGWSLC | 0.686 ± 0.023
PPLTHPPPPLYL | 0.694 ± 0.008
VLAPPPLLPPPY | 0.6843 ± 0.0021
CRTFSALVDRFT | 0.687 ± 0.046
LHPPLALPRPPP | 0.711 ± 0.05
RPPAPVFPNFPG | 0.708 ± 0.022
TPQSLRDAHGSC | 0.662 ± 0.056
DISSSILEIFTS | 0.7031 ± 0.0032
GECAELSSVGGG | 0.664 ± 0.035
GGVGGVRLVVSR | 0.684 ± 0.064
LGSNLVCFLCVS | 0.566 ± 0.053
EWGKCGRGLYGC | 0.666 ± 0.033
AEEAEVAGPRHC | 0.777 ± 0.18
SPCTPSRLQPSS | 0.65 ± 0.027
LGGGGRWVVPGA | 0.722 ± 0.029

Sequence | protein stability index
NTNEKKRQRKKK | 0.6389 ± 0.0037
ENKKKKKNIEKK | 0.702 ± 0.04
GRFVVHEEVWFV | 0.6958 ± 0.0035
ATIRNSMPYHFN | 0.646 ± 0.044
CLVWGGCYWDVG | 0.6019 ± 0.0015
LPDPPEPHLRLP | 0.694 ± 0.025
CFFLVLPPFPLF | 0.518 ± 0.028
GAGRYVLNPCCS | 0.678 ± 0.034
YLFSLSSSLFIL | 0.56 ± 0.0085
GLLCWVGRWGVF | 0.596 ± 0.05
WGVGWSGRVGGS | 0.647 ± 0.045
PCPHPLRPALIL | 0.704 ± 0.014
GVMCRTGSGMVM | 0.711 ± 0.021
TLSLPPLHPPPH | 0.699 ± 0.0063
PTRQKRPPYRIK | 0.711 ± 0.031
GRTDKKKFISGL | 0.608 ± 0.029
PSPPHPPPPLFP | 0.706 ± 0.02
PLPPLPPPTAPP | 0.693 ± 0.029
TLRKTTRHRRNA | 0.737 ± 0.069
VIGWACLCFGAI | 0.555 ± 0.0063
PLPPTPPPLAPP | 0.644 ± 0.086
PCVISRPPRLFP | 0.752 ± 0.06
GVVGVWRGAGWR | 0.717 ± 0.041
DPPLRPSSLPPP | 0.653 ± 0.0084
PPPVRFPSLPLA | 0.8189 ± 0.0061
VLSEHRGLPLTR | 0.659 ± 0.066

Sequence | protein stability index
RCPRRASSPTLS | 0.843 ± 0.17
PPCHPPPTTSEK | 0.677 ± 0.032
FLFSYIEGSPNP | 0.721 ± 0.073
FEFGGGIRGSLG | 0.679 ± 0.048
AGYEEWVRDARV | 0.73 ± 0.0075
VGGGLGGGVVLV | 0.6993 ± 0.0011
GVEGCKRAGKLR | 0.651 ± 0.033
GGGSGKSGNLYS | 0.687 ± 0.06
PLGDLGPRLRKP | 0.669 ± 0.039
PLPPPPRPPAPL | 0.688 ± 0.0072
KEKSSKRSGKTE | 0.644 ± 0.15
SLPPPPSQLRPL | 0.726 ± 0.015
PLPPPPRPRPPL | 0.721 ± 0.04
PTTTPHPHIATP | 0.711 ± 0.14
GLGGRAAQKCGQ | 0.688 ± 0.016
RGVVRYVNGSRG | 0.568 ± 0.083
VGSLCSRLGRRS | 0.765 ± 0.13
PLPPLPPPPPAA | 0.682 ± 0.038
PPPPPPPPPVLP | 0.675 ± 0.0081
LERDRLINVLPI | 0.726 ± 0.042
MNPSADYSIGAR | 0.688 ± 0.062
PQTPPPLLPPSL | 0.671 ± 0.013
PPLLPPPSPPPP | 0.684 ± 0.04
RKETQKIRKKRI | 0.679 ± 0.03
GRRVKTVNSLGL | 0.709 ± 0.061
VLRRRPNDMRKF | 0.6939 ± 0.0062

Sequence | protein stability index
RSVVLPSFLSPH | 0.699 ± 0.017
LRPFLFSALPLT | 0.672 ± 0.01
LTAGGGEACGPP | 0.625 ± 0.015
GLAELLLTKPTV | 0.652 ± 0.021
STFGVMVTHEMN | 0.727 ± 0.021
APLPHAASSLPA | 0.6982 ± 0.0046
PNKRLKERGDPS | 0.695 ± 0.086
LPPSSLPLPCLL | 0.793 ± 0.21
RRPPALDSLRHY | 0.661 ± 0.011
VWRSERCRRGGV | 0.699 ± 0.15
VLLSSWLIWLGG | 0.62 ± 0.01
LPSARSLVSPSP | 0.74 ± 0.0092
AVGTAPVFLWFG | 0.679 ± 0.0083
KTGEKIKKNNIK | 0.692 ± 0.059
SSPSPPRPPAPF | 0.704 ± 0.091
DPARNDTTTETI | 0.666 ± 0.027
PPPLPPSPPHHP | 0.689 ± 0.04
PSPTPSPPFPAP | 0.721 ± 0.038
WVAFTRGGCGHC | 0.66 ± 0.017
GGGGGCGVAGGV | 0.71 ± 0.026
KKTIENEGRNIL | 0.645 ± 0.0069
SGVEGTRQGSVS | 0.711 ± 0.068
CGSAIGEARDLG | 0.621 ± 0.021
GGGPGRCAGGGR | 0.669 ± 0.024
SGGQDSFVLRLG | 0.6687 ± 0.0015
SGSRRTSRVGSR | 0.721 ± 0.0087

Sequence | protein stability index
SPAARPLFRTIS | 0.61 ± 0.054
CVIGRDGTDLWV | 0.685 ± 0.0089
SLVCCGPVWVFL | 0.573 ± 0.022
PFFVRNTFTCSL | 0.735 ± 0.11
DLSNVITKMFVI | 0.6542 ± 0.0036
GGVLGNGCGFGR | 0.784 ± 0.065
SPSTPPPPSPPV | 0.647 ± 0.017
VGGRDWADSLVV | 0.772 ± 0.015
TKQLKGEQERDG | 0.648 ± 0.031
VLFSCLSLCWVF | 0.6081 ± 0.005
TLCTKCNVFSCC | 0.682 ± 0.062
NSRCSIQGAPLL | 0.726 ± 0.041
RGSQRVVVSLGW | 0.726 ± 0.0073
SVMMGVWWSGYR | 0.709 ± 0.13
YCPLSRTQSSAR | 0.859 ± 0.18
PPPTPRIPRPLR | 0.717 ± 0.02
CVAAISGESLLR | 0.667 ± 0.021
RGNSPPPSSPPL | 0.687 ± 0.038
GALFRRACSLLF | 0.697 ± 0.039
GFKIEVIQASGS | 0.683 ± 0.025
PSPPASTPLPPP | 0.684 ± 0.024
DGGAGGLGLLGG | 0.651 ± 0.0081
AADVALQFKPRT | 0.658 ± 0.027
VCRCWGGKGQDS | 0.71 ± 0.012
PPFPLSPLPPPL | 0.71 ± 0.0047
HPDAGTAARDTD | 0.648 ± 0.092

Sequence | protein stability index
RLEERTNIKKIK | 0.699 ± 0.045
VMWVGAGVSLSC | 0.6411 ± 0.0041
GGARGLLRGLLG | 0.755 ± 0.085
MGKEELDKKDEG | 0.625 ± 0.032
PPPPPLPPPPTP | 0.652 ± 0.058
LESEDDRKLSLL | 0.659 ± 0.011
WAIYPDVESVIP | 0.773 ± 0.0081
PPSPFHPPPPER | 0.551 ± 0.013
CVWCSGRSPCYV | 0.634 ± 0.047
FNIRDKVKRGAL | 0.666 ± 0.008
VCARAGRALEDS | 0.674 ± 0.08
CLHLDQAACVGS | 0.695 ± 0.1
RCTLSSFIYFCP | 0.601 ± 0.039
LVFLGLCGTDFV | 0.676 ± 0.12
GGGGGRGGVVVR | 0.682 ± 0.014
FNEKNKKSTLER | 0.652 ± 0.043
IGISIRTAQGEL | 0.674 ± 0.02
GGWPWGGFLVDR | 0.735 ± 0.012
SLELWPGAKGAP | 0.702 ± 0.1
NIYDFQPPVSGH | 0.77 ± 0.052

— the supplement of paper PMC10724198
